Results taken from the supplement of paper PMC10567573.
± gives the standard deviation.

Assay: protein stability index of a GFP-peptide fusion (GPS, HEK-293T) (PSI 1-6); higher = more stable
Conditions: c terminus: a fixed tail appended
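Further: 24-mer peptide tiles fused after GFP, lentivirally expressed, FACS-sorted into six equal bins by GFP/DsRed ratio, decoded by Illumina sequencing, PSI is the read-weighted mean bin number.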

Sequence	protein stability index (treatment: DMSO)	protein stability index (treatment: MLN4924 1 uM, 8 h)
DPGVQELEALIDTIQKQLKDHSCK [EFHC1]	3.93 ± 0.28	3.97 ± 0.25
VGGQDTGATWRTSGLLEELNAEAG [C18orf25]	4.57 ± 0.2	4.59 ± 0.34
LSLEAVICFKEMLANSWNCLPKHL [KLHDC2]	2.49 ± 0.35	2.37 ± 0.53
VCVRAHESVVKSEDFSLPAYMDRR [COX4I1]	3.1 ± 0.43	3.14 ± 0.24
IHSREKRGDSVKVENPSTASHSLS [ZNF649]	4.97 ± 0.26	5.22 ± 0.15
TVEPGKLDVGATEGQDLQHISNQK [DRICH1]	5.43 ± 0.23	5.4 ± 0.4
SGYMEGYYTFHFLYFKDKIFNVAI [FBXO3]	3.36 ± 0.48	2.75 ± 0.15
HRELLRLESRIRDVHELFLQMAVL [STX11]	2.49 ± 0.33	2.4 ± 0.28
KKCVKKFVEYCDVNNDKSISVQEL [SMOC2]	3.57 ± 0.21	3.68 ± 0.49
PSEHVQGKSPVNMVTVAMVAGQCE [ZNF649]	4.14 ± 0.34	4.26 ± 0.14
DARQLFVLAGAAEEGFMTAELAGV [GNAI1]	2.75 ± 0.37	2.92 ± 0.31
LRTTVHHAFPVVTENRGNEKEFMK [CLCN6]	4.05 ± 0.27	4.38 ± 0.098
CRNCINLQNEAQKRESFLKYKCLL [IQUB]	2.08 ± 0.44	2.22 ± 0.26
SRELEPELRRRRYEYDHWDAAIHG [ALKBH7]	3.87 ± 0.25	3.92 ± 0.18
FLGETKQETLTNISAVNYDFDEEY [DAPK3]	4.77 ± 0.35	4.84 ± 0.24
LLRHRMNWLGRPSKVLSLQDLCCR [RAB40A]	2.62 ± 0.27	2.71 ± 0.35
LSARDHQKLEREARICRLLKHPNI [CAMK2A]	2.98 ± 0.069	3.01 ± 0.26
VEFDVLPAFDALGQLTGGYKPNPQ [OAS1]	2.85 ± 0.27	2.9 ± 0.21
KVVLSDAYAHPQQKVAVYRALQAA [TRADD]	2.9 ± 0.41	3.24 ± 0.25
DIKAEPQPLSPASSSYSVSSPRSV [ATF6]	4.61 ± 0.14	4.74 ± 0.44
MASTTTCTRFTDEYQLFEELGKGA [CAMK2D]	3.74 ± 0.38	3.64 ± 0.29
TLSTIEFQREALENSHTNTEVLRN [CHMP4C]	4.66 ± 0.14	4.92 ± 0.19
LNSEQAEQLERINDALSCEYECRR [FAM98B]	4.54 ± 0.29	4.66 ± 0.11

Sequence	protein stability index (treatment: DMSO)	protein stability index (treatment: MLN4924 1 uM, 8 h)
RKSMLDAGPDSWGSDAEQSTSGQP [LCOR]	5.21 ± 0.091	5.15 ± 0.24
QLGTLAGSKYYNVEAMYCYLRCIQ [SMG5]	2.68 ± 0.29	2.3 ± 0.41
WPSAKSAGWTLATLGEQGLPHQSH [SCNN1D]	3.36 ± 0.43	3.17 ± 0.4
SINAGSWMWLSCSSFFQQFFHCYC [CRY1]	–	3.4 ± 0.11
KALWEDKTSLWEEENALWEEERAF [CCDC70]	3.79 ± 0.18	3.87 ± 0.14
TISFRIYKSVLQAVQKTDEGHPFK [RTN1]	2.13 ± 0.17	2.28 ± 0.13
LPPEALTAPSGGQWGAEPEGSCYQ [RNF208]	4.73 ± 0.42	4.73 ± 0.078
TVEERQTGMWWRHLVAGGGAGAVS [SLC25A25]	2.98 ± 0.39	2.96 ± 0.43
NFSLATNTKYSVYIYVYFHTKLTS [R3HDM1]	2.6 ± 0.41	2.36 ± 0.9
GFSCDGTANTFRVMFKEPIEILPN [BTBD1]	2.6 ± 0.22	2.73 ± 0.31
EKMEEEEQTCDPDSSLHWSSSYSP [ZNF396]	5.3 ± 0.32	5.56 ± 0.065
TESEAHYSSQLSQVQSLITNVESQ [KRT34]	4.83 ± 0.31	4.78 ± 0.21
DDSVMKATQQARKRNFISSKSKQP [C22orf31]	4.87 ± 0.15	4.98 ± 0.2
MAYAKLMLTVMTKYQANITETQRL [FANCE]	3.16 ± 0.75	2.95 ± 0.52
PQVLSQEFTELLKVMIHPDPERRP [WEE1]	3.45 ± 0.17	3.43 ± 0.16
MMNQSMMGMNMNIGMSAAGMGLTG [CLINT1]	2.46 ± 0.39	2.53 ± 0.3
LEEEEEEEEEAEDEEVVATAGDRL [IRX6]	5.71 ± 0.27	5.46 ± 0.32
DKKTCTKIDYCASSNHGCQHECVN [MATN2]	4.11 ± 0.22	4.23 ± 0.13
DALEDSLEEVAVQQTGDDDEVDDF [PBXIP1]	5.59 ± 0.28	5.67 ± 0.15
DKPVTGPRNKTENGLTPKKKIQVN [ATF6]	4.81 ± 0.31	4.63 ± 0.32
QIKAIRGSNEYTEGPSVVKRPAPR [SPRY1]	4.05 ± 0.09	4.47 ± 0.3
DLIDRGWRRSGKYVYKPVMNQTCC [ATE1]	2.26 ± 0.14	2.23 ± 0.23
ELEEDDGHGAEQAAAFPTEDSRTS [EHMT1]	5.65 ± 0.17	5.7 ± 0.088

Sequence	protein stability index (treatment: DMSO)	protein stability index (treatment: MLN4924 1 uM, 8 h)
VAVALRKPDGSRHQDVPSQDDSKP [AASDHPPT]	5.15 ± 0.26	5 ± 0.17
YGPQVNNISHTKEKKKGKAKKKRL [WASL]	4.48 ± 0.34	4.68 ± 0.29
GPDNLVLLNPEKYKAKSRSPGSPV [ADD1]	4.47 ± 0.25	4.63 ± 0.13
SFSEEGAVGYSSDSETLDLEEAEG [NFE2L1]	5.75 ± 0.38	5.18 ± 0.5
FLGGVVRMTISLTVILIESTNEIT [CLCN6]	3.41 ± 0.43	3.42 ± 0.19
HDFFLQGFTPDRLSSSCCHTVPDF [PLK2]	2.71 ± 0.23	2.73 ± 0.24
RLHLAFKRQVPTEQARAYAEKNCM [RAB40C]	2.98 ± 0.15	3.1 ± 0.26
SLALDIDRDAEDQNRYLDGMVRAH [BET1L]	4.24 ± 0.17	4.39 ± 0.31
VARILIDLCSDVNVCSLLAQTPLH [RIPK4]	2.65 ± 0.26	2.57 ± 0.4
FICKECGKAYGWCSELIRHRRVHA [ZNF232]	3.38 ± 0.3	3.73 ± 0.33
SFLFLGCSHSFLLAVMGYDRYIAI [OR10K2]	3.14 ± 0.21	2.83 ± 0.59
FIVGMVGNATLLRIIYQNKCMRNG [EDNRA]	2.98 ± 0.15	2.51 ± 0.68
PYGVYKKQQKDPSEEAAVLQYASL [ATE1]	3.62 ± 0.23	3.8 ± 0.5
YTGPSSSGRFAGREWYYGNVTRHQ [NCK2]	2.35 ± 0.31	2.65 ± 0.58
MRFASGRPAFVRVRRGHSHLAPSE	3.08 ± 0.22	3.29 ± 0.4
EHKETSRNLHSHYHEAPMTRKHYQ [POMT2]	4.09 ± 0.28	4.22 ± 0.2
YEIRVKTNLPIFKLKESTVRRRYS [SNX3]	2.44 ± 0.4	2.27 ± 0.22
QGSRGLTDQAIFYAVTPLPWCPHL [HDAC6]	2.64 ± 0.66	2.41 ± 0.46
KEAGVQKLILTSSASVIFEGVDIK [NSDHL]	2.99 ± 0.3	2.84 ± 0.19
HDFIEHILRKLPQQREKLSLIRKH [CCND2]	2.3 ± 0.1	2.45 ± 0.25
LLPESGIVADIELENVLDPDSFYE [TFE3]	4.47 ± 0.3	4.76 ± 0.49
MQPSKPQQPSLNTMIQQQNMQQPM [CLINT1]	4.1 ± 0.13	4.34 ± 0.46
MLLELTRRGQEPLSALLQFGVTYL [BCL2L13]	2.63 ± 0.59	2.4 ± 0.41

Sequence	protein stability index (treatment: DMSO)	protein stability index (treatment: MLN4924 1 uM, 8 h)
AKYCGHLYGLGSGSSYVQNGTGNA [CNOT7]	2.8 ± 0.3	2.78 ± 0.28
EQPVPPTPATPEDPAPLWGPPPAQ [EMID1]	4.92 ± 0.38	5.32 ± 0.22
KEQDVEKELRDGGEQDTWAGEGAE [NFE2L1]	–	5.83 ± 0.073
NQNLSNRPSFNRTPIPWLSSGEPV [MYOZ1]	3.43 ± 0.38	3.5 ± 0.15
PLTFDKNENMAAKKKSVAMHTNYL [GNB5]	3.33 ± 0.26	3.46 ± 0.26
EAAKGGHTSVVCYLLDYPNNLLSA [ANKRD17]	2.02 ± 0.57	2.06 ± 0.47
DDCDDDDDDAQILPSPVQACSEDS [DRICH1]	5.48 ± 0.46	5.62 ± 0.24
RETYPRTPYVRWNYVAKNFAQALG [SOAT2]	2.34 ± 0.34	2.17 ± 0.38
VSLKQEGDDQPSETDHLSMEEEDP [TPRG1]	5.61 ± 0.22	5.63 ± 0.2
KVLTEPEVRYYLRQIVSGLKYLHE [PLK2]	3.19 ± 0.29	2.42 ± 0.33
GAYQPTVVSSEGRQSRRQSVSRFF [FBF1]	4.01 ± 0.37	4.1 ± 0.32
SRELASMNLDIVDLLKKAKFHHSD [RHOBTB3]	3.2 ± 0.2	3.09 ± 0.23
PSDKMKWCLRVNPKGLDDESKDYL [SPOPL]	3.22 ± 0.34	3.81 ± 0.47
PPVPCVPSVPCTPAPQVGTQIRTI [KRT36]	4.46 ± 0.22	4.31 ± 0.2
ASSLNGGNIKGIEGHSPGNLPKFC [ZC2HC1A]	3.56 ± 0.078	4.02 ± 0.15
LGAQTQFDVKNDRYIVNGSHEANK [EIF5]	4.8 ± 0.3	4.77 ± 0.2
NVKYLKKILDELEKVLDQVETELQ [GDAP1]	4.25 ± 0.077	4.23 ± 0.14
AGVSLSTLEELLPPNTRVLRVLPN [PYCR3]	2.79 ± 0.26	2.63 ± 0.23
YGYAAQARARERERLAHSRAAAAA [KCNA4]	3.9 ± 0.26	4.02 ± 0.097
EAELELLRQFDLAWQYGPCTGITR [POLD4]	2.85 ± 0.3	2.67 ± 0.3
RLPCSFVTLALLGSYTVQSELGDY [EPB41L3]	2.91 ± 0.56	2.48 ± 0.35
